“And” between values parts separate entries of the source, which are not always exact repeats. Identical values can stand only once.
Details: Thermal, reversible: yes
[1] = Methanobacterium formicicum, pH 2, DSC, glycine 25 mM, KCl 1.0 M
[2] = Methanobacterium formicicum, pH 3, DSC, glycine 25 mM, KCl 1.0 M
[3] = Methanobacterium formicicum, pH 4, DSC, glycine 25 mM, KCl 0.2 M
[4] = Methanobacterium formicicum, pH 4, DSC, glycine 25 mM, KCl 1.0 M
[5] = Methanobacterium formicicum, pH 5, DSC, acetate 25 mM, KCl 0.2 M
[6] = Methanobacterium formicicum, pH 5, DSC, acetate 25 mM, KCl 1.0 M
[7] = Methanobacterium formicicum, pH 6, DSC, MES 25 mM, KCl 0.2 M
[8] = Methanobacterium formicicum, pH 6, DSC, MES 25 mM, KCl 1.0 M
[9] = Methanothermus fervidus, pH 3, DSC, glycine 25 mM, KCl 0.2 M
[10] = Methanothermus fervidus, pH 4, DSC, glycine 25 mM, KCl 0.2 M
[11] = Methanothermus fervidus, pH 5, DSC, acetate 25 mM, KCl 0.2 M
[12] = Methanothermus fervidus, pH 6, DSC, MES 25 mM, KCl 0.2 M

Chain of DNA-binding protein HMf-1 wild type, P48781 (P48781 whole entry): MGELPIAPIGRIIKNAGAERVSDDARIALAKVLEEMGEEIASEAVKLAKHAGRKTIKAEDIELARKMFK
Chain of Archaeal histone B wild type, O59627 (O59627 whole entry): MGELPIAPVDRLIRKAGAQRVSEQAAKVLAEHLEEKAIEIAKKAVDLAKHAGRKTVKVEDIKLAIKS
Chain of Archaeal histone A1 wild type, P48782 (P48782 whole entry): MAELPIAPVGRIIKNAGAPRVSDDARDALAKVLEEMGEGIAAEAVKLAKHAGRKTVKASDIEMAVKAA

Question: What does the source list for Archaeal histone A1 wild type, P48782?
Answer: Tm (Methanobacterium formicicum, pH 2, CD, glycine 25 mM, KCl 1.0 M): 60.3 °C; Tm [1]: 64.7 °C; unfolding enthalpy (calorimetric) [1]: 10.5 kcal/mol; unfolding enthalpy (van 't Hoff) [1]: 115 kcal/mol; Tm (Methanobacterium formicicum, pH 3, CD, glycine 25 mM, KCl 1.0 M): 73 °C; Tm [2]: 77 °C; unfolding enthalpy (calorimetric) [2]: 35.4 kcal/mol; unfolding enthalpy (van 't Hoff) [2]: 109 kcal/mol; Tm (Methanobacterium formicicum, pH 4, CD, glycine 25 mM, KCl 1.0 M): 91.5 °C; Tm [3]: 75.6 °C; unfolding enthalpy (calorimetric) [3]: 45.6 kcal/mol; unfolding enthalpy (van 't Hoff) [3]: 91.1 kcal/mol; Tm [4]: 90.3 °C; unfolding enthalpy (calorimetric) [4]: 47.1 kcal/mol; unfolding enthalpy (van 't Hoff) [4]: 129 kcal/mol; Tm (Methanobacterium formicicum, pH 5, CD, acetate 25 mM, KCl 0.2 M): 74.8 °C; Tm (Methanobacterium formicicum, pH 5, CD, acetate 25 mM, KCl 1.0 M): 92 °C; Tm [5]: 76.9 °C; unfolding enthalpy (calorimetric) [5]: 36.9 kcal/mol; unfolding enthalpy (van 't Hoff) [5]: 114 kcal/mol; Tm [6]: 90.9 °C; unfolding enthalpy (calorimetric) [6]: 41 kcal/mol; unfolding enthalpy (van 't Hoff) [6]: 124 kcal/mol; Tm (Methanobacterium formicicum, pH 6, CD, MES 25 mM, KCl 0.2 M): 70.9 °C; Tm [7]: 76.5 °C; unfolding enthalpy (calorimetric) [7]: 63.9 kcal/mol; unfolding enthalpy (van 't Hoff) [7]: 94.9 kcal/mol; Tm [8]: 90.5 °C; unfolding enthalpy (calorimetric) [8]: 50.4 kcal/mol; unfolding enthalpy (van 't Hoff) [8]: 122 kcal/mol

Question: For Archaeal histone B wild type, O59627, which Tm (Pyrococcus furiosus (strain ATCC 43587 / DSM 3638 / JCM 8422 / Vc1), pH 4, CD, glycine 25 mM, KCl 0.2 M) is on record?
Answer: 107 °C

Question: And the Tm (Pyrococcus furiosus (strain ATCC 43587 / DSM 3638 / JCM 8422 / Vc1), pH 5, CD, acetate 25 mM, KCl 0.2 M)?
Answer: 114 °C

Question: What about the Tm (Pyrococcus furiosus (strain ATCC 43587 / DSM 3638 / JCM 8422 / Vc1), pH 7.5, CD, phosphate 25 mM, KCl 0.2 M) of the same substance?
Answer: 110 °C

Question: For “DNA-binding protein HMf-1 wild type, P48781”, which Tm (Methanothermus fervidus, pH 2, CD, glycine 25 mM, KCl 1.0 M) is on record?
Answer: 94 °C

Question: And the Tm (Methanothermus fervidus, pH 2.5, CD, glycine 25 mM, KCl 0.2 M)?
Answer: 78.2 °C

Question: What about the Tm (Methanothermus fervidus, pH 2.7, CD, glycine 25 mM, KCl 0.2 M) of the same substance?
Answer: 84.9 °C

Question: What about the Tm (Methanothermus fervidus, pH 3, CD, glycine 25 mM, KCl 0.2 M) of the same substance?
Answer: 84.6 °C and 89.3 °C

Question: What about the Tm (Methanothermus fervidus, pH 3, CD, glycine 25 mM, KCl 1.0 M) of the same substance?
Answer: 101 °C

Question: And the Tm [9]?
Answer: 96.1 °C

Question: What about the “unfolding enthalpy (calorimetric)” value [9] of the same substance?
Answer: 14.1 kcal/mol

Question: What about the “unfolding enthalpy (van 't Hoff)” value [9] of the same substance?
Answer: 139 kcal/mol

Question: And the Tm (Methanothermus fervidus, pH 3.3, CD, glycine 25 mM, KCl 0.2 M)?
Answer: 94.1 °C

Question: What about the Tm (Methanothermus fervidus, pH 3.7, CD, glycine 25 mM, KCl 0.2 M) of the same substance?
Answer: 103 °C

Question: What about the Tm (Methanothermus fervidus, pH 4, CD, glycine 25 mM, KCl 0.2 M) of the same substance?
Answer: 100 °C and 103 °C

Question: What about the Tm [10] of the same substance?
Answer: 97.6 °C

Question: What about the “unfolding enthalpy (calorimetric)” value [10] of the same substance?
Answer: 41.3 kcal/mol

Question: And the “unfolding enthalpy (van 't Hoff)” value [10]?
Answer: 158 kcal/mol

Question: What about the Tm [11] of the same substance?
Answer: 104 °C

Question: What about the “unfolding enthalpy (calorimetric)” value [11] of the same substance?
Answer: 37.3 kcal/mol

Question: And the “unfolding enthalpy (van 't Hoff)” value [11]?
Answer: 164 kcal/mol

Question: What about the Tm [12] of the same substance?
Answer: 101 °C

Question: What about the “unfolding enthalpy (calorimetric)” value [12] of the same substance?
Answer: 44.5 kcal/mol

Question: What about the “unfolding enthalpy (van 't Hoff)” value [12] of the same substance?
Answer: 158 kcal/mol
